The values that follow come from patent US9958461B2, “Detection of protein to protein interactions” (THE GOVERNING COUNCIL OF THE UNIVERSITY OF TORONTO, priority 2013, dated 2018).

Experiment [1] concerns the target T1, EGFR-Wt (Homo sapiens, UniProt P00533).
T1 construct: with the advantage of testing full-length integral membrane proteins; (GGGGS)2 linker-Cub (human ubiquitin aa 35-76)-GAL4(1-147)-mNFkB(364-550) (C); expressed in transfected cells
The experiment is described as follows: MaMTH EGFR-interactor screen, lentiviral preys against EGFR-wildtype bait (interaction score). The following applies: MaMTH interaction score of prey with EGFR-Wt bait, mean. The experiment is classed as cell-based. Put shortly:
(§1)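 Interaction score is the luciferase fold-change versus averaged negative controls (Fabp5, Pex19, Pex7, GABBR2), with >1 called interacting. Luciferase was measured 24 h after triplicate bait transfection. This followed single-copy prey transduction (MOI ~0.3-0.4) of GAL4UAS-luciferase HEK293T cells and ≥48 h puromycin selection.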

The subject of experiment [2] is EGFR-Wt. The experiment is described as above. The experiment is classed as cell-based, human. The following applies: ratio of EGFR-Wt mean to EGFR-L858R mean interaction score. Put shortly:
as §1

For experiment [3], the target named is T2, EGFR-L858R (Homo sapiens, UniProt P00533, L858R).
T2 construct: with the advantage of testing full-length integral membrane proteins; (GGGGS)2 linker-Cub (human ubiquitin aa 35-76)-GAL4(1-147)-mNFkB(364-550) (C); expressed in transfected cells
The experiment is described as follows: MaMTH EGFR-interactor screen, lentiviral preys against EGFR-L858R bait (interaction score). The experiment is classed as cell-based. The following applies: MaMTH interaction score of prey with EGFR-L858R bait. Summed up:
as §1

B1: LYN (protein, UniProt P07948 2-512, looked up)
Tyrosine-protein kinase Lyn: GCIKSKGKDSLSDDGVDLKTQPVRNTERTIYVRDPTSNKQQRPVPESQLLPGQRFQTKDPEEQGDIVVALYPYDGIHPDDLSFKKGEKMKVLEEHGEWWKAKSLLTKKEGFIPSNYVAKLNTLETEEWFFKDITRKDAERQLLAPGNSAGAFLIRESETLKGSFSLSVRDFDPVHGDVIKHYKIRSLDNGGYYISPRITFPCISDMIKHYQKQADGLCRRLEKACISPKPQKPWDKDAWEIPRESIKLVKRLGAGQFGEVWMGYYNNSTKVAVKTLKPGTMSVQAFLEEANLMKTLQHDKLVRLYAVVTREEPIYIITEYMAKGSLLDFLKSDEGGKVLLPKLIDFSAQIAEGMAYIERKNYIHRDLRAANVLVSESLMCKIADFGLARVIEDNEYTAREGAKFPIKWTAPEAINFGCFTIKSDVWSFGILLYEIVTYGKIPYPGRTNADVMTALSQGYRMPRVENCPDELYDIMKMCWKEKAEERPTFDYLQSVLDDFYTATEGQYQQQP
Molecule B1 had an EGFR-Wt mean in experiment [1] of 6.92. The Wt/L858R in experiment [2] was 0.71. The molecule also yielded an EGFR-L858R mean in experiment [3] of 9.74.

B2: SH2D3A (protein, UniProt Q9BRG2 1-576, looked up)
SH2 domain-containing protein …: MQVPQDGEDLAGQPWYHGLLSRQKAEALLQQNGDFLVRASGSRGGNPVISCRWRGSALHFEVFRVALRPRPGRPTALFQLEDEQFPSIPALVHSYMTGRRPLSQATGAVVSRPVTWQGPLRRSFSEDTLMDGPARIEPLRARKWSNSQPADLAHMGRSREDPAGMEASTMPISALPRTSSDPVLLKAPAPLGTVADSLRASDGQLQAKAPTKPPRTPSFELPDASERPPTYCELVPRVPSVQGTSPSQSCPEPEAPWWEAEEDEEEENRCFTRPQAEISFCPHDAPSCLLGPQNRPLEPQVLHTLRGLFLEHHPGSTALHLLLVDCQATGLLGVTRDQRGNMGVSSGLELLTLPHGHHLRLELLERHQTLALAGALAVLGCSGPLEERAAALRGLVELALALRPGAAGDLPGLAAVMGALLMPQVSRLEHTWRQLRRSHTEAALAFEQELKPLMRALDEGAGPCDPGEVALPHVAPMVRLLEGEEVAGPLDESCERLLRTLHGARHMVRDAPKFRKVAAQRLRGFRPNPELREALTTGFVRRLLWGSRGAGAPRAERFEKFQRVLGVLSQRLEPDR
Molecule B2 yielded an EGFR-Wt mean in experiment [1] of 4.75. For the same molecule, the Wt/L858R in experiment [2] worked out at 0.66. This molecule registered an EGFR-L858R mean in experiment [3] of 7.23.

B3: STAT1 (protein, UniProt P42224 2-750, looked up)
Signal transducer and …: SQWYELQQLDSKFLEQVHQLYDDSFPMEIRQYLAQWLEKQDWEHAANDVSFATIRFHDLLSQLDDQYSRFSLENNFLLQHNIRKSKRNLQDNFQEDPIQMSMIIYSCLKEERKILENAQRFNQAQSGNIQSTVMLDKQKELDSKVRNVKDKVMCIEHEIKSLEDLQDEYDFKCKTLQNREHETNGVAKSDQKQEQLLLKKMYLMLDNKRKEVVHKIIELLNVTELTQNALINDELVEWKRRQQSACIGGPPNACLDQLQNWFTIVAESLQQVRQQLKKLEELEQKYTYEHDPITKNKQVLWDRTFSLFQQLIQSSFVVERQPCMPTHPQRPLVLKTGVQFTVKLRLLVKLQELNYNLKVKVLFDKDVNERNTVKGFRKFNILGTHTKVMNMEESTNGSLAAEFRHLQLKEQKNAGTRTNEGPLIVTEELHSLSFETQLCQPGLVIDLETTSLPVVVISNVSQLPSGWASILWYNMLVAEPRNLSFFLTPPCARWAQLSEVLSWQFSSVTKRGLNVDQLNMLGEKLLGPNASPDGLIPWTRFCKENINDKNFPFWLWIESILELIKKHLLPLWNDGCIMGFISKERERALLKDQQPGTFLLRFSESSREGAITFTWVERSQNGGEPDFHAVEPYTKKELSAVTFPDIIRNYKVMAAENIPENPLKYLYPNIDKDHAFGKYYSRPKEAPEPMELDGPKGTGYIKTELISVSEVHPSRLQTTDNLLPMSPEEFDEVSRIVGSVEFDSMMNTV
In the case of B3, in experiment [1], the EGFR-Wt mean was 4.70. Moreover, in experiment [2], the Wt/L858R was found to be 0.69. Further, the EGFR-L858R mean in experiment [3] amounted to 6.80.

B4: Pdgfra (protein, UniProt P26618 25-1089, looked up)
Platelet-derived growth …: LLLPSILPNENEKIVQLNSSFSLRCVGESEVSWQHPMSEEDDPNVEIRSEENNSGLFVTVLEVVNASAAHTGWYTCYYNHTQTDESEIEGRHIYIYVPDPDMAFVPLGMTDSLVIVEEDDSAIIPCRTTDPETQVTLHNNGRLVPASYDSRQGFNGTFSVGPYICEATVKGRTFKTSEFNVYALKATSELNLEMDARQTVYKAGETIVVTCAVFNNEVVDLQWTYPGEVRNKGITMLEEIKLPSIKLVYTLTVPKATVKDSGEYECAARQATKEVKEMKRVTISVHEKGFVEIEPTFGQLEAVNLHEVREFVVEVQAYPTPRISWLKDNLTLIENLTEITTDVQKSQETRYQSKLKLIRAKEEDSGHYTIIVQNEDDVKSYTFELSTLVPASILDLVDDHHGSGGGQTVRCTAEGTPLPEIDWMICKHIKKCNNDTSWTVLASNVSNIITELPRRGRSTVEGRVSFAKVEETIAVRCLAKNNLSVVARELKLVAPTLRSELTVAAAVLVLLVIVIVSLIVLVVIWKQKPRYEIRWRVIESISPDGHEYIYVDPMQLPYDSRWEFPRDGLVLGRILGSGAFGKVVEGTAYGLSRSQPVMKVAVKMLKPTARSSEKQALMSELKIMTHLGPHLNIVNLLGACTKSGPIYIITEYCFYGDLVNYLHKNRDSFMSQHPEKPKKDLDIFGLNPADESTRSYVILSFENNGDYMDMKQADTTQYVPMLERKEVSKYSDIQRSLYDRPASYKKKSMLDSEVKNLLSDDDSEGLTLLDLLSFTYQVARGMEFLASKNCVHRDLAARNVLLAQGKIVKICDFGLARDIMHDSNYVSKGSTFLPVKWMAPESIFDNLYTTLSDVWSYGILLWEIFSLGGTPYPGMMVDSTFYNKIKSGYRMAKPDHATSEVYEIMVQCWNSEPEKRPSFYHLSEIVENLLPGQYKKSYEKIHLDFLKSDHPAVARMRVDSDNAYIGVTYKNEEDKLKDWEGGLDEQRLSADSGYIIPLPDIDPVPEEEDLGKRNRHSSQTSEESAIETGSSSSTFIKREDETIEDIDMMDDIGIDSSDLVEDSFL
Regarding B4, the EGFR-Wt mean in experiment [1] was determined as 9.18. Besides, the Wt/L858R in experiment [2] worked out at 0.67. The molecule also gave an EGFR-L858R mean in experiment [3] of 13.73.

B5: TXN (protein, UniProt P10599 2-105, looked up)
Thioredoxin: VKQIESKTAFQEALDAAGDKLVVVDFSATWCGPCKMIKPFFHSLSEKYSNVIFLEVDVDDCQDVASECEVKCMPTFQFFKKGQKVGEFSGANKEKLEATINELV
Consider B5, for which the EGFR-Wt mean in experiment [1] is 5.10. Moreover, in experiment [2], the Wt/L858R is recorded as 0.73. The same molecule gave an EGFR-L858R mean in experiment [3] of 7.03.

B6: SLA2 (protein, UniProt Q9H6Q3 2-261, looked up)
Src-like-adapter 2: GSLPSRRKSLPSPSLSSSVQGQGPVTMEAERSKATAVALGSFPAGGPAELSLRLGEPLTIVSEDGDWWTVLSEVSGREYNIPSVHVAKVSHGWLYEGLSREKAEELLLLPGNPGGAFLIRESQTRRGSYSLSVRLSRPASWDRIRHYRIHCLDNGWLYISPRLTFPSLQALVDHYSELADDICCLLKEPCVLQRAGPLPGKDIPLPVTVQRTPLNWKELDSSLLFSEAATGEESLLSEGLRESLSFYISLNDEAVSLDDA
Molecule B6 came in with an EGFR-Wt mean in experiment [1] of 2.22. In experiment [2], the Wt/L858R stood at 0.71. This molecule also came in with an EGFR-L858R mean in experiment [3] of 3.11.

B7: PTPN18 (protein, UniProt Q99952 1-460, looked up)
Tyrosine-protein phosphatase …: MSRSLDSARSFLERLEARGGREGAVLAGEFSDIQACSAAWKADGVCSTVAGSRPENVRKNRYKDVLPYDQTRVILSLLQEEGHSDYINGNFIRGVDGSLAYIATQGPLPHTLLDFWRLVWEFGVKVILMACREIENGRKRCERYWAQEQEPLQTGLFCITLIKEKWLNEDIMLRTLKVTFQKESRSVYQLQYMSWPDRGVPSSPDHMLAMVEEARRLQGSGPEPLCVHCSAGCGRTGVLCTVDYVRQLLLTQMIPPDFSLFDVVLKMRKQRPAAVQTEEQYRFLYHTVAQMFCSTLQNASPHYQNIKENCAPLYDDALFLRTPQALLAIPRPPGGVLRSISVPGSPGHAMADTYAVVQKRGAPAGAGSGTQTGTGTGTGARSAEEAPLYSKVTPRAQRPGAHAEDARGTLPGRVPADQSPAGSGAYEDVAGGAQTGGLGFNLRIGRPKGPRDPPAEWTRV
Molecule B7 registered an EGFR-Wt mean in experiment [1] of 1.54. The Wt/L858R in experiment [2] is on record as 0.71. Moreover, in experiment [3], the EGFR-L858R mean is listed as 2.18.

B8: PTK2 (protein, UniProt Q05397 2-1052, looked up)
Focal adhesion kinase 1: AAAYLDPNLNHTPNSSTKTHLGTGMERSPGAMERVLKVFHYFESNSEPTTWASIIRHGDATDVRGIIQKIVDSHKVKHVACYGFRLSHLRSEEVHWLHVDMGVSSVREKYELAHPPEEWKYELRIRYLPKGFLNQFTEDKPTLNFFYQQVKSDYMLEIADQVDQEIALKLGCLEIRRSYWEMRGNALEKKSNYEVLEKDVGLKRFFPKSLLDSVKAKTLRKLIQQTFRQFANLNREESILKFFEILSPVYRFDKECFKCALGSSWIISVELAIGPEEGISYLTDKGCNPTHLADFTQVQTIQYSNSEDKDRKGMLQLKIAGAPEPLTVTAPSLTIAENMADLIDGYCRLVNGTSQSFIIRPQKEGERALPSIPKLANSEKQGMRTHAVSVSETDDYAEIIDEEDTYTMPSTRDYEIQRERIELGRCIGEGQFGDVHQGIYMSPENPALAVAIKTCKNCTSDSVREKFLQEALTMRQFDHPHIVKLIGVITENPVWIIMELCTLGELRSFLQVRKYSLDLASLILYAYQLSTALAYLESKRFVHRDIAARNVLVSSNDCVKLGDFGLSRYMEDSTYYKASKGKLPIKWMAPESINFRRFTSASDVWMFGVCMWEILMHGVKPFQGVKNNDVIGRIENGERLPMPPNCPPTLYSLMTKCWAYDPSRRPRFTELKAQLSTILEEEKAQQEERMRMESRRQATVSWDSGGSDEAPPKPSRPGYPSPRSSEGFYPSPQHMVQTNHYQVSGYPGSHGITAMAGSIYPGQASLLDQTDSWNHRPQEIAMWQPNVEDSTVLDLRGIGQVLPTHLMEERLIRQQQEMEEDQRWLEKEERFLKPDVRLSRGSIDREDGSLQGPIGNQHIYQPVGKPDPAAPPKKPPRPGAPGHLGSLASLSSPADSYNEGVKLQPQEISPPPTANLDRSNDKVYENVTGLVKAVIEMSSKIQPAPPEEYVPMVKEVGLALRTLLATVDETIPLLPASTHREIEMAQKLLNSDLGELINKMKLAQQYVMTSLQQEYKKQMLTAAHALAVDAKNLLDVIDQARLKMLGQTRPH
In the case of B8, the EGFR-Wt mean in experiment [1] amounted to 4.05. Moreover, in experiment [2], the Wt/L858R is recorded as 0.72. The EGFR-L858R mean in experiment [3] came out at 5.59.
